Molecular target: T1, Act1 SEFIR (wild type) (UniProt Q8N7N6 390-531)
T1 sequence: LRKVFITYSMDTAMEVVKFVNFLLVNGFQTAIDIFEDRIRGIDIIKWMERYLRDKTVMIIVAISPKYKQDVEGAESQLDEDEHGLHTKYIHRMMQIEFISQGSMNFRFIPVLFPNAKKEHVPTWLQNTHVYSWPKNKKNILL
Assay: competition

B1: Hif1α aptamer (SBE) (structured_RNA)
RNA: UAAUGCUCUUUUUAAUAUGUUCUUUUAAUGCCAGAUCACAGCACAUUCACAGCU
modifications: chemically modified RNA oligo (modification not specified)
binding result: binds

Reference: PMC8996325
